Values belong to the molecule of their own block, whether it stands above or below them. Square brackets hold non-standard residues; d marks the D form.
What was measured:
[1] = target: CP-CNDS, fluorescein-labelled (mixture of DCP1 and DCP2, mass ratio 2:3); assay: fluorescence polarisation
lipase = target: T1, lipase (UniProt P16233 17-465)
T1 sequence (looked up): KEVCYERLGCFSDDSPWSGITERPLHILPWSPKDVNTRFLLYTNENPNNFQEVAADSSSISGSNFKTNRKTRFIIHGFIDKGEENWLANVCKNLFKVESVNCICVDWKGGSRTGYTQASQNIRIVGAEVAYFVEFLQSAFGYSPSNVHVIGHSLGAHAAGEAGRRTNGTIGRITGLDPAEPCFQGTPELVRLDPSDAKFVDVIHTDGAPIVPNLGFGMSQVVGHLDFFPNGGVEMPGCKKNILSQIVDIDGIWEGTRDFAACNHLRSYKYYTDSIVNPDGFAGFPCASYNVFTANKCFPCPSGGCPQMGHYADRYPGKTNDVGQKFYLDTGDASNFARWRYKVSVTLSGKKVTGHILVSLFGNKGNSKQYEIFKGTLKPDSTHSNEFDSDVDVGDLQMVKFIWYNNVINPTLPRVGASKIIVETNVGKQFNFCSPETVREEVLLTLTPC

trypsin = target: T2, trypsin (UniProt P35030 81-304)
T2 sequence (looked up): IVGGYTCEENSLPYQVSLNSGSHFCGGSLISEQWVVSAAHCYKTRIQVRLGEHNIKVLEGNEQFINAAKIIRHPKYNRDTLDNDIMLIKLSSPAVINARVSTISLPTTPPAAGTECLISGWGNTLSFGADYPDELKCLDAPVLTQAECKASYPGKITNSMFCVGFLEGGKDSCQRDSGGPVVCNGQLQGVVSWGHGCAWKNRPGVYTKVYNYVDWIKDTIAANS

Kd (Ac-(rada)4-NH2): 227 nM
Molecule: chymotrypsin (enzyme)

Kd [1]: 251 nM
B1: lipase (enzyme)
chain: KEVCYERLGCFSDDSPWSGITERPLHILPWSPKDVNTRFLLYTNENPNNFQEVAADSSSISGSNFKTNRKTRFIIHGFIDKGEENWLANVCKNLFKVESVNCICVDWKGGSRTGYTQASQNIRIVGAEVAYFVEFLQSAFGYSPSNVHVIGHSLGAHAAGEAGRRTNGTIGRITGLDPAEPCFQGTPELVRLDPSDAKFVDVIHTDGAPIVPNLGFGMSQVVGHLDFFPNGGVEMPGCKKNILSQIVDIDGIWEGTRDFAACNHLRSYKYYTDSIVNPDGFAGFPCASYNVFTANKCFPCPSGGCPQMGHYADRYPGKTNDVGQKFYLDTGDASNFARWRYKVSVTLSGKKVTGHILVSLFGNKGNSKQYEIFKGTLKPDSTHSNEFDSDVDVGDLQMVKFIWYNNVINPTLPRVGASKIIVETNVGKQFNFCSPETVREEVLLTLTPC

Kd [1]: 102 nM
B2: trypsin (enzyme)
chain: IVGGYTCEENSLPYQVSLNSGSHFCGGSLISEQWVVSAAHCYKTRIQVRLGEHNIKVLEGNEQFINAAKIIRHPKYNRDTLDNDIMLIKLSSPAVINARVSTISLPTTPPAAGTECLISGWGNTLSFGADYPDELKCLDAPVLTQAECKASYPGKITNSMFCVGFLEGGKDSCQRDSGGPVVCNGQLQGVVSWGHGCAWKNRPGVYTKVYNYVDWIKDTIAANS

Kd (lipase): ~452 nM
Kd (trypsin): ~342 nM
B3: Ac-(rada)4-NH2 (peptide)
peptide: Ac-[dR][dA][dD][dA][dR][dA][dD][dA][dR][dA][dD][dA][dR][dA][dD][dA]-NH2

Source: article PMC11341566 (Nature Communications, 2024)
